In the supplement of paper PMC7125110:
± gives the standard error. Fewer inactive variants are shown than the library holds.

B1: glmS ribozyme (parent)
chain: AUAAAAGCGCCAGAACUACAGAAAUGUAGUUGACGAGGAGGAGGUUUAUCGAAUUUUCGGCGGAUGCCUCCAAA

Columns and labels:
Settings in all cases: with glucosamine-6-phosphate
glucosamine-6-phosphate [1] = variants of: B1; experiment: self-cleavage kobs at 40 uM GlcN6P; higher = faster cleavage; RNA array
How it was run: (§1)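 Barcoded ribozyme variants, transcribed in situ by E. coli RNA polymerase on sequenced MiSeq chips, were followed via a hybridised Cy3 probe at 37 °C. Glucosamine-6-phosphate ranged from 40 μM to 10 mM in HEPES/KCl/Mg(OAc)2 buffer. kobs came from decay fits to per-tile medians, and kcat and KM from weighted Michaelis–Menten fits.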

glucosamine-6-phosphate [2] = variants of: B1; experiment: self-cleavage kobs at 160 uM GlcN6P; higher = faster cleavage; RNA array
How it was run: as §1

glucosamine-6-phosphate [3] = variants of: B1; experiment: self-cleavage kobs at 2500 uM GlcN6P; higher = faster cleavage; RNA array
How it was run: as §1

glucosamine-6-phosphate [4] = variants of: B1; experiment: self-cleavage kobs at 10000 uM GlcN6P; higher = faster cleavage; RNA array
How it was run: as §1

glucosamine-6-phosphate [5] = variants of: B1; experiment: self-cleavage kobs at 640 uM GlcN6P; higher = faster cleavage; RNA array
How it was run: as §1

Variant | self-cleavage kobs at 40 uM GlcN6P (glucosamine-6-phosphate [1]) [s⁻¹] | self-cleavage kobs at 160 uM GlcN6P (glucosamine-6-phosphate [2]) [s⁻¹] | self-cleavage kobs at 2500 uM GlcN6P (glucosamine-6-phosphate [3]) [s⁻¹] | self-cleavage kobs at 10000 uM GlcN6P (glucosamine-6-phosphate [4]) [s⁻¹] | self-cleavage kobs at 640 uM GlcN6P (glucosamine-6-phosphate [5]) [s⁻¹]
A48C C71A | < 1e-05 | < 1e-05 | 3.84e-05 ± 1.4e-05 | 4.23e-05 ± 1e-05 | 
C50G A53C C67G | 7.76e-05 ± 2.5e-05 | 0.000121 ± 2.6e-05 | 0.000336 ± 0.00012 | 5.98e-05 ± 1.9e-05 | 0.000198 ± 6.2e-05
U49G C50A | < 1e-05 | < 1e-05 |  |  | 
A52U G60A | < 1e-05 | < 1e-05 |  | < 1e-05 | < 1e-05
A48U G59A | < 1e-05 | < 1e-05 | < 1e-05 | < 1e-05 | < 1e-05
U49C G66C | < 1e-05 | < 1e-05 |  | < 1e-05 | < 1e-05
A53G U69A | 0.000147 ± 4e-05 |  | 0.000305 ± 8.4e-05 | 8.92e-05 ± 2.1e-05 | 0.000407 ± 0.0001
A52U A64G U69A | < 1e-05 |  |  |  | 
A52C U56A | < 1e-05 |  |  |  | < 1e-05
U49G G66C | < 1e-05 |  | < 1e-05 |  | 
C50A U57G C68U | < 1e-05 |  |  | < 1e-05 | 
A48G C50G C61A | 9.98e-05 ± 2.4e-05 |  |  | 6.27e-05 ± 1.9e-05 | 
C50G A53U G63U U69A | 0.00027 ± 6.1e-05 | 0.000207 ± 5.6e-05 | 0.000121 ± 3.5e-05 | 0.000127 ± 2.4e-05 | 
G60U C70A | < 1e-05 | < 1e-05 |  | < 1e-05 | < 1e-05
A48C A64C | < 1e-05 | < 1e-05 | < 1e-05 |  | 
U49C G59U | < 1e-05 | < 1e-05 |  | < 1e-05 | < 1e-05
U55A G62A | < 1e-05 |  | < 1e-05 |  | 
G51A U69C | < 1e-05 |  |  | < 1e-05 | 
C50G U57A C58G | 8.29e-05 ± 2.4e-05 | 0.000517 ± 0.00012 | 7.43e-05 ± 2.1e-05 |  | 0.000297 ± 9.4e-05
C58G A64U | < 1e-05 |  | < 1e-05 | < 1e-05 | < 1e-05
C58G A64C | < 1e-05 | < 1e-05 |  |  | 
G59A C68U U69G | < 1e-05 |  |  |  | 

Variant | self-cleavage kobs at 40 uM GlcN6P (glucosamine-6-phosphate [1]) [s⁻¹] | self-cleavage kobs at 160 uM GlcN6P (glucosamine-6-phosphate [2]) [s⁻¹] | self-cleavage kobs at 2500 uM GlcN6P (glucosamine-6-phosphate [3]) [s⁻¹] | self-cleavage kobs at 10000 uM GlcN6P (glucosamine-6-phosphate [4]) [s⁻¹] | self-cleavage kobs at 640 uM GlcN6P (glucosamine-6-phosphate [5]) [s⁻¹]
G60U C68G | < 1e-05 | < 1e-05 | < 1e-05 | < 1e-05 | < 1e-05
G60A C71U | < 1e-05 |  |  |  | < 1e-05
A48U U49C | < 1e-05 | < 1e-05 | < 1e-05 | < 1e-05 | 
G63C A64U | < 1e-05 |  | < 1e-05 | < 1e-05 | < 1e-05
U56C G59C C68G | < 1e-05 |  |  | < 1e-05 | 
U54G A64C C67A C70U | 0.000151 ± 5.2e-05 | 0.000348 ± 0.00013 | 0.000241 ± 0.0001 | 4.58e-05 ± 1.8e-05 | 0.000556 ± 0.00017
A53U U55C | 0.000338 ± 7.3e-05 | 0.00118 ± 0.0004 | 0.00602 ± 0.0019 | 0.0266 ± 0.0065 | 0.00434 ± 0.00089
A53G G66U C67A | 7.95e-05 ± 1.9e-05 |  |  | 0.00186 ± 0.00059 | 
U56A G62U | < 1e-05 |  |  |  | < 1e-05
G60C C67A C71U | < 1e-05 |  |  |  | 
G51C A52U | < 1e-05 |  |  | < 1e-05 | < 1e-05
U54G U55G | 0.00108 ± 0.00018 | 0.00148 ± 0.00028 | 0.0105 ± 0.0029 |  | 0.00673 ± 0.0015
A53U U56C | 5.21e-05 ± 8e-06 | 0.000101 ± 1.5e-05 | 0.00118 ± 0.00021 | 0.0038 ± 0.00042 | 0.000782 ± 9.1e-05
A53U U56G | 0.000405 ± 6.8e-05 | 0.000558 ± 0.00015 | 0.00421 ± 0.0011 | 0.0151 ± 0.004 | 0.00241 ± 0.00042
U49C U65C | < 1e-05 |  |  | < 1e-05 | < 1e-05
C50G G66A C70A | 7.79e-05 ± 2.3e-05 |  |  |  | 
G62C U65C | < 1e-05 | < 1e-05 | < 1e-05 |  | < 1e-05
A48U G60U | < 1e-05 | < 1e-05 | < 1e-05 | < 1e-05 | < 1e-05
A48G U65C | < 1e-05 |  |  | < 1e-05 | 
A52G A53C | < 1e-05 |  |  |  | 
C50G U57A G63U A64U | 7.9e-05 ± 2.7e-05 |  |  |  | 
